The chains are these.
T1: Myo5 SH3 (MYO5_YEAST), Q04439
T1 chain: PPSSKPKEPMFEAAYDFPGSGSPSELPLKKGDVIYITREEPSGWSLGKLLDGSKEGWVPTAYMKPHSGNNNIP

T2: Boi2 SH3 (BOI2_YEAST), P39969
T2 chain: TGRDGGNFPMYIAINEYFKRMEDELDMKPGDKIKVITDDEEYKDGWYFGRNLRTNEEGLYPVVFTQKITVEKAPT

T3: Boi1 SH3 (BOI1_YEAST), P38041
T3 chain: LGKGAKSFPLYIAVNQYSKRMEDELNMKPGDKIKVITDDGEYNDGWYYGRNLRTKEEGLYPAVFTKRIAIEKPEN

T4: Rvs167 SH3 (RV167_YEAST), P39743
T4 chain: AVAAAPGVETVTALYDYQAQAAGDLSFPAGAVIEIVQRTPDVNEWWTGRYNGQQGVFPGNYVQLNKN

T5: Yhr016c SH3 (YSC84_YEAST), P32793
T5 chain: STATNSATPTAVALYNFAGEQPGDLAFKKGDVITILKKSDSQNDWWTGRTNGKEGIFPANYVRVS

T6: Yfr024 SH3 (LSB3_YEAST), P43603
T6 chain: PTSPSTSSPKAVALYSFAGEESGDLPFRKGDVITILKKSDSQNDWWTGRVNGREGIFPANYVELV

B1: YLL065W 94-107 (peptide)
chain: NIPTKSPPKSPKHK
B2: YDR543C 77-90 (peptide)
chain: NITEKSPPKSPKHK
B3: YPR171W 465-478 (peptide)
chain: NNLKKRPPTAPQRK
B4: YLR189C 152-165 (peptide)
chain: NLKTKSHPEVPRLD
B5: YBR136W 500-513 (peptide)
chain: NPFVRINPNRPEAA
B6: YHL035C 1327-1340 (peptide)
chain: NLSLRYAPNLPPVI
B7: YJL133W 8-21 (peptide)
chain: NNSTRPIPAIPMDL
B8: YFR013W 78-91 (peptide)
chain: NKPKRKRPAPPKKK
B9: YOL019W 467-480 (peptide)
chain: NLYQRTTPAGPDPS
B10: YCR032W 1499-1512 (peptide)
chain: NKIPKHLPADPIFS
B11: 60-73 ubiquitin-conjugating enzyme (peptide)
chain: MEYPFKPPKMQFDT
B12: 147-160 Hypothetical ORF (peptide)
chain: MVTPSKPPKKSVGF
B13: 532-545 Hypothetical ORF (peptide)
chain: NHIPPFPLRFSFAQ
B14: 165-178 " Radiation repair protein, putative DNA helicase" (peptide)
chain: NAPPYVPQRSKQPD
B15: 1037-1050 DNA replication helicase (peptide)
chain: NDDPVIPYKLSKDT
B16: 128-141 " putative RNA binding protein, involved in meiosis-specific splicing of the REC107 transcripts in cooperation with the (peptide)
chain: MLIPNFPNKKLKLN
B17: 66-79 ubiquitin-conjugating enzyme (peptide)
chain: NEYPSKPPKVKFPA
B18: 38-51 Mitochondrial ribosomal protein MRPL25 (YmL25) (peptide)
chain: NANPFLPNKHPVTQ
B19: 923-936 similar to RNA helicases (peptide)
chain: MKAPKMPDKHRDNY
B20: 764-777 mitohcondrial RNA polymerase (peptide)
chain: MVLPPAPPKNSDPS
B21: 50-63 Putative participant in 3' mRNA processing (peptide)
chain: MSLPVTPVKSKVSS
B22: 11-24 Hypothetical ORF (peptide)
chain: MVRPAPPRRADPEG

The target of one test is T1, Myo5 SH3 (MYO5_YEAST), Q04439. Briefly: SPOT array.
B1 came in with a normalised SPOT signal, Boehringer light units (BLU); mean over the file's lines of this peptide of 12500.

As for B2, the normalised SPOT signal, Boehringer light units (BLU); mean over the file's lines of this peptide turned out to be 292.

For B3, the normalised SPOT signal, Boehringer light units (BLU); mean over the file's lines of this peptide came to 419.

With B4, the normalised SPOT signal, Boehringer light units (BLU); mean over the file's lines of this peptide was 363.

In turn, B5 gave a normalised SPOT signal, Boehringer light units (BLU); mean over the file's lines of this peptide of 276.

As for B6, the normalised SPOT signal, Boehringer light units (BLU); mean over the file's lines of this peptide amounted to 779.

Molecule B7 gave a normalised SPOT signal, Boehringer light units (BLU); mean over the file's lines of this peptide of 247.

B8 gave a normalised SPOT signal, Boehringer light units (BLU); mean over the file's lines of this peptide of 872.

The molecule B9 came in with a normalised SPOT signal, Boehringer light units (BLU); mean over the file's lines of this peptide of 114.

For the molecule B10, the normalised SPOT signal, Boehringer light units (BLU); mean over the file's lines of this peptide stood at 278.

The target of a further test is T2, Boi2 SH3 (BOI2_YEAST), P39969. Briefly: SPOT array.
Turning to B1, the normalised SPOT signal, Boehringer light units (BLU); mean over the file's lines of this peptide is 1.2.

The molecule B2 yielded a normalised SPOT signal, Boehringer light units (BLU); mean over the file's lines of this peptide of 18.7.

Regarding B3, the normalised SPOT signal, Boehringer light units (BLU); mean over the file's lines of this peptide amounted to 152.

In turn, B4 had a normalised SPOT signal, Boehringer light units (BLU); mean over the file's lines of this peptide of 142.

B5 registered a normalised SPOT signal, Boehringer light units (BLU); mean over the file's lines of this peptide of 47.2.

For the molecule B6, the normalised SPOT signal, Boehringer light units (BLU); mean over the file's lines of this peptide came to 25.4.

B7 returned a normalised SPOT signal, Boehringer light units (BLU); mean over the file's lines of this peptide of 20.8.

In turn, B8 had a normalised SPOT signal, Boehringer light units (BLU); mean over the file's lines of this peptide of 22.9.

Turning to B9, the normalised SPOT signal, Boehringer light units (BLU); mean over the file's lines of this peptide is 126.

Turning to B10, the normalised SPOT signal, Boehringer light units (BLU); mean over the file's lines of this peptide stood at 21.

Another test concerns the target T3, Boi1 SH3 (BOI1_YEAST), P38041. In words: SPOT array.
B1: the normalised SPOT signal, Boehringer light units (BLU); mean over the file's lines of this peptide was determined as 743.

Consider B2, for which the normalised SPOT signal, Boehringer light units (BLU); mean over the file's lines of this peptide was 3420.

Molecule B3 had a normalised SPOT signal, Boehringer light units (BLU); mean over the file's lines of this peptide of 2270.

In turn, B4 gave a normalised SPOT signal, Boehringer light units (BLU); mean over the file's lines of this peptide of 426.

The molecule B5 had a normalised SPOT signal, Boehringer light units (BLU); mean over the file's lines of this peptide of 444.

Molecule B6 came in with a normalised SPOT signal, Boehringer light units (BLU); mean over the file's lines of this peptide of 360.

B7: the normalised SPOT signal, Boehringer light units (BLU); mean over the file's lines of this peptide was determined as 203.

In turn, B8 came in with a normalised SPOT signal, Boehringer light units (BLU); mean over the file's lines of this peptide of 635.

The molecule B9 yielded a normalised SPOT signal, Boehringer light units (BLU); mean over the file's lines of this peptide of 585.

Consider B10, for which the normalised SPOT signal, Boehringer light units (BLU); mean over the file's lines of this peptide worked out at 187.

The target in another test is T4, Rvs167 SH3 (RV167_YEAST), P39743. Briefly: SPOT array.
In turn, B1 displayed a normalised SPOT signal, Boehringer light units (BLU); mean over the file's lines of this peptide of 64.5.

In turn, B2 registered a normalised SPOT signal, Boehringer light units (BLU); mean over the file's lines of this peptide of 124.

As for B3, the normalised SPOT signal, Boehringer light units (BLU); mean over the file's lines of this peptide was found to be 6090.

For B4, the normalised SPOT signal, Boehringer light units (BLU); mean over the file's lines of this peptide came out at 1080.

On to B5, for which the normalised SPOT signal, Boehringer light units (BLU); mean over the file's lines of this peptide is 56.6.

The molecule B6 gave a normalised SPOT signal, Boehringer light units (BLU); mean over the file's lines of this peptide of 216.

Consider B7, for which the normalised SPOT signal, Boehringer light units (BLU); mean over the file's lines of this peptide was 58900.

B8: the normalised SPOT signal, Boehringer light units (BLU); mean over the file's lines of this peptide worked out at 83.6.

B9 showed a normalised SPOT signal, Boehringer light units (BLU); mean over the file's lines of this peptide of 344.

Take B10: the normalised SPOT signal, Boehringer light units (BLU); mean over the file's lines of this peptide came to 67.8.

For a further test, the target named is Sho1 SH3 (SHO1_YEAST), P40073. In words: SPOT array.
Chain of Sho1 SH3 (SHO1_YEAST), P40073 (P40073 295-366): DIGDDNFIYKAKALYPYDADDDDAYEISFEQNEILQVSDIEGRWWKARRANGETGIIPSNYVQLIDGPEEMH
In turn, B11 registered a normalised SPOT signal, Boehringer light units (BLU); mean over the file's lines of this peptide of 164.

As to B1, the normalised SPOT signal, Boehringer light units (BLU); mean over the file's lines of this peptide came out at 53.

With B2, the normalised SPOT signal, Boehringer light units (BLU); mean over the file's lines of this peptide amounted to 74.8.

Take B12: the normalised SPOT signal, Boehringer light units (BLU); mean over the file's lines of this peptide worked out at 749.

As to B3, the normalised SPOT signal, Boehringer light units (BLU); mean over the file's lines of this peptide came out at 64.6.

With B13, the normalised SPOT signal, Boehringer light units (BLU); mean over the file's lines of this peptide is 184.

As to B14, the normalised SPOT signal, Boehringer light units (BLU); mean over the file's lines of this peptide was 143.

In the case of B15, the normalised SPOT signal, Boehringer light units (BLU); mean over the file's lines of this peptide was determined as 201.

For B4, the normalised SPOT signal, Boehringer light units (BLU); mean over the file's lines of this peptide stood at 104.

The molecule B16 came in with a normalised SPOT signal, Boehringer light units (BLU); mean over the file's lines of this peptide of 415.

Molecule B17 gave a normalised SPOT signal, Boehringer light units (BLU); mean over the file's lines of this peptide of 330.

On to B18, for which the normalised SPOT signal, Boehringer light units (BLU); mean over the file's lines of this peptide stood at 210.

B5 had a normalised SPOT signal, Boehringer light units (BLU); mean over the file's lines of this peptide of 35.9.

Molecule B6 showed a normalised SPOT signal, Boehringer light units (BLU); mean over the file's lines of this peptide of 40.5.

Molecule B19 showed a normalised SPOT signal, Boehringer light units (BLU); mean over the file's lines of this peptide of 181.

Take B7: the normalised SPOT signal, Boehringer light units (BLU); mean over the file's lines of this peptide worked out at 1770.

B20: the normalised SPOT signal, Boehringer light units (BLU); mean over the file's lines of this peptide is 141.

The molecule B8 showed a normalised SPOT signal, Boehringer light units (BLU); mean over the file's lines of this peptide of 88.2.

Molecule B9 returned a normalised SPOT signal, Boehringer light units (BLU); mean over the file's lines of this peptide of 60.6.

B10: the normalised SPOT signal, Boehringer light units (BLU); mean over the file's lines of this peptide stood at 67.2.

For the molecule B21, the normalised SPOT signal, Boehringer light units (BLU); mean over the file's lines of this peptide turned out to be 284.

In the case of B22, the normalised SPOT signal, Boehringer light units (BLU); mean over the file's lines of this peptide amounted to 608.

The target in the next test is T5, Yhr016c SH3 (YSC84_YEAST), P32793. In words: SPOT array.
Molecule B1 had a normalised SPOT signal, Boehringer light units (BLU); mean over the file's lines of this peptide of 198.

The molecule B2 showed a normalised SPOT signal, Boehringer light units (BLU); mean over the file's lines of this peptide of 110.

On to B3, for which the normalised SPOT signal, Boehringer light units (BLU); mean over the file's lines of this peptide was determined as 4310.

In the case of B4, the normalised SPOT signal, Boehringer light units (BLU); mean over the file's lines of this peptide is 2740.

Regarding B5, the normalised SPOT signal, Boehringer light units (BLU); mean over the file's lines of this peptide worked out at 73.5.

In turn, B6 returned a normalised SPOT signal, Boehringer light units (BLU); mean over the file's lines of this peptide of 135.

Regarding B7, the normalised SPOT signal, Boehringer light units (BLU); mean over the file's lines of this peptide is 44100.

For the molecule B8, the normalised SPOT signal, Boehringer light units (BLU); mean over the file's lines of this peptide was 81.6.

B9 registered a normalised SPOT signal, Boehringer light units (BLU); mean over the file's lines of this peptide of 1140.

With B10, the normalised SPOT signal, Boehringer light units (BLU); mean over the file's lines of this peptide was 90.5.

A further test deals with T6, Yfr024 SH3 (LSB3_YEAST), P43603. In words: SPOT array.
In turn, B1 yielded a normalised SPOT signal, Boehringer light units (BLU); mean over the file's lines of this peptide of 518.

As for B2, the normalised SPOT signal, Boehringer light units (BLU); mean over the file's lines of this peptide came to 187.

In turn, B3 had a normalised SPOT signal, Boehringer light units (BLU); mean over the file's lines of this peptide of 6960.

For B4, the normalised SPOT signal, Boehringer light units (BLU); mean over the file's lines of this peptide was 327.

In turn, B5 showed a normalised SPOT signal, Boehringer light units (BLU); mean over the file's lines of this peptide of 344.

B6 had a normalised SPOT signal, Boehringer light units (BLU); mean over the file's lines of this peptide of 154.

B7 registered a normalised SPOT signal, Boehringer light units (BLU); mean over the file's lines of this peptide of 39600.

Turning to B8, the normalised SPOT signal, Boehringer light units (BLU); mean over the file's lines of this peptide turned out to be 568.

Turning to B9, the normalised SPOT signal, Boehringer light units (BLU); mean over the file's lines of this peptide came to 389.

In the case of B10, the normalised SPOT signal, Boehringer light units (BLU); mean over the file's lines of this peptide is 835.
